Test results published in US20210009982.

Target: T1, mini cellulose-binding protein A (mCbpA), P38058
T1 chain: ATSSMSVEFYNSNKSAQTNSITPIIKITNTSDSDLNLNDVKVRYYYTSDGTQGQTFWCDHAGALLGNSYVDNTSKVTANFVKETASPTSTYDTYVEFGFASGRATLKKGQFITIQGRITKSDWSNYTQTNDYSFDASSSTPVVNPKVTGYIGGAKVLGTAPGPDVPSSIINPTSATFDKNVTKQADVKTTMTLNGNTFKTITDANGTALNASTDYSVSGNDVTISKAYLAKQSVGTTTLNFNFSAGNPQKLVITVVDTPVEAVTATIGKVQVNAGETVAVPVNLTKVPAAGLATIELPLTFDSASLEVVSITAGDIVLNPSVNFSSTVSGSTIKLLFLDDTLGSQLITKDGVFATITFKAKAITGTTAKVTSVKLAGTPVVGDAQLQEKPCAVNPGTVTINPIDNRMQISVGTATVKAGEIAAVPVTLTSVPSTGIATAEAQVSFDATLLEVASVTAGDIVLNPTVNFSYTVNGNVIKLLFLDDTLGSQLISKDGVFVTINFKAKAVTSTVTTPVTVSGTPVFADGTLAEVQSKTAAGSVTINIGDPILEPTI

B1: arabinose isomerase (LsAraA) linked with the dockerin module of the endo-β-1,4-glucanase B gene (protein)
chain: SLSARVSFKKHVKKGVFIMLNTENYEFWFVTGSQSLYGEETLRSVEKDAKEIVEKLNASRQLPYPIVFKLVATTADNITKVMKEANYNDHVAGVITWMHTFSPAKNWIRGTKLLQKPLLHLATQFLNKIPYDTIDFDYMNLNQSAHGDREYAFINARLRKNNKIISGYWGDEDVQKAMAKWMDVAVAYNESFKIKVVTFADKMRNVAVTDGDKVEAQIKFGWTVDYWGVGDLVAEVNAVSEADIDAKYADLQKEYDFVEGQNTPEKFEHNVKYQIREYFGLKKFMDDRGYTAFTTNFEDLVGLEQLPGLAAQLLMAEGYGFAGEGDWKTAALDRLLKIMAHNEKTVFMEDYTLDLRQGHEAILGSHMLEVDPSIASDKPRVEVHPLDIGDKDDPARLVFTGMQGDAVDVTMADYGDEFKLMSYDVRGNKPEADTPHLPVAKQLWTPKQGLREGAVGWLTVGGGHHTVLSFAVDSEQLQDLSHLFDLTYVNIKTQTQTSYSLGDVNKDGKVNAIDYAVLKSILLGTNTNVDLSVSDMNKDGKVNALDLAVLKKMLLS
tagatose conversion activity using galactose as a substrate: the degradation activity was increased in the order of mCbpA (M), arabinose isomerase (LsAraA, L) and arabinose isomerase-mCbpA (LM)
